For test [1], the target named is human whole saliva (human). Briefly: ELISA: 1:2 dilution of whole saliva coated, 65 kDa protein added, detected with rat anti-65 kDa serum.
In test [2] the target is human salivary α-amylase (Type IX A, Sigma Chemical Co.) (human). Briefly: ELISA: amylase (10.0 µg/ml) coated, 65 kDa protein added, detected with rat anti-65 kDa serum. A general note: ELISA stands for enzyme-linked immunosorbent assay.

The text below walks through data of US20050207995A1.

human salivary α-amylase (Type IX A, Sigma Chemical Co.) (human), sequence (P0DUB6 16-511): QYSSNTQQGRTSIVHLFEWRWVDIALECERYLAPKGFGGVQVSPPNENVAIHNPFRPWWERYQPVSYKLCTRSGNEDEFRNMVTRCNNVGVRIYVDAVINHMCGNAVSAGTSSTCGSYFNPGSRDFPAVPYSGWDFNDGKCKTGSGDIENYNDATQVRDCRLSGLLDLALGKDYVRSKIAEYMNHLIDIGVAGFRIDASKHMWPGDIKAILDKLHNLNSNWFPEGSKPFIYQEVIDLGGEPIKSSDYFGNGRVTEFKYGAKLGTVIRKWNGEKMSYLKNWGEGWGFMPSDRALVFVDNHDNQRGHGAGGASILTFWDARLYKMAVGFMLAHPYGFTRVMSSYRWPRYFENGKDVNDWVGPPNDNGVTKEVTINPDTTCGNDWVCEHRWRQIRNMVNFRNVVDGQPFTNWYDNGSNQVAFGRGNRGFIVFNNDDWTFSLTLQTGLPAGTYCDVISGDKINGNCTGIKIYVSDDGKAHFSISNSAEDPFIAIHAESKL

Consider “purified 65 kDa fimbrial protein of S. mutans A32-2 (serotype c) (enzyme)”, for which the O.D. (ELISA absorbance at 490 nm) was found to be 0.26 O.D in test [1] and 0.25 O.D in test [2].
